From the Human Domainome abundance scans (Beltran et al. 2025)

B1: Neutrophil cytosol factor 2, residues 456 to 514; numbered along this chain, P19878 (parent)
chain: LKKGSQVEALFSYEATQPEDLEFQEGDIILVLSKVNEEWLEGECKGKVGIFPKVFVEDC

Variants of: B1
Test: abundance fitness (aPCA) (normalised: wild type 0, dead -1); higher = more abundant; growth selection in yeast, the domain comes from the species named
Conditions: Homo sapiens

Abundance fitness: each site, then its substitutions
C59: L -0.112 | H -0.361 | A 0.057 | V 0.402 | D -0.555 | Y -0.204 | P 0.078 | I 0.153 | T 0.289 | N -0.242 | S -0.012 | G -0.64 | R -0.173 | F -0.044
D58: K 0.351 | V -0.138 | R 0.155 | F -0.718 | L -0.493 | S 0.022 | E 0.091 | G 0.392 | I -0.268 | Y -0.595 | P 0.214 | C 0.313 | M -0.203 | Q -0.079 | T 0.133
E57: W -0.033 | M -0.464 | Q 0.541 | V -0.198 | T 0.487 | R 0.865 | S 0.271 | L -0.505 | P -0.28 | N -0.194 | K 0.201
